Among the data in article PMC11183095 (2024) are Kd values, retold here.

In this assay the target is Recombinant His-PGAM1 (human, UniProt P18669 1-254). The experiment in a line: BLI. On the technique in general: Biolayer interferometry detects binding as a change in optical thickness at a sensor tip.
Sequence of Recombinant His-PGAM1 (P18669 whole entry): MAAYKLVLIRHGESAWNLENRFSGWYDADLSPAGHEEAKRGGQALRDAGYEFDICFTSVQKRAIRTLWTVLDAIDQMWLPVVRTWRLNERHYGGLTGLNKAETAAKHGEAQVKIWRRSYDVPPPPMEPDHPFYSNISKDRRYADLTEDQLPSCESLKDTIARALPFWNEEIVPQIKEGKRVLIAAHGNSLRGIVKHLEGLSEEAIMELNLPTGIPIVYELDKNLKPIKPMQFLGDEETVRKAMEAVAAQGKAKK

B1: Recombinant GST-PKM2 (enzyme)
chain: not shown
As a reminder, the Kd is the concentration at which binding is half-saturated. In the case of B1, the equilibrium dissociation constant (Kd) stood at 2240 nM.
